Results taken from publication PMC5554458 (Cellular signalling, 2017).

How the values were obtained:
Assay in all cases: inhibition of enzyme activity
[1] = biological target: PDE6C-Y323N (human, UniProt P51160 1-858, Y323N)
[2] = biological target: PDE6C-L858V (human, UniProt P51160 1-858, L858V, farnesyl on the Cys of the C-terminal CAAX box (farnesylated PDE6C-L858V))
[3] = biological target: PDE6C-H262N (human, UniProt P51160 1-858, H262N)
Sequence of PDE6C-H262N (P51160 whole entry H262N): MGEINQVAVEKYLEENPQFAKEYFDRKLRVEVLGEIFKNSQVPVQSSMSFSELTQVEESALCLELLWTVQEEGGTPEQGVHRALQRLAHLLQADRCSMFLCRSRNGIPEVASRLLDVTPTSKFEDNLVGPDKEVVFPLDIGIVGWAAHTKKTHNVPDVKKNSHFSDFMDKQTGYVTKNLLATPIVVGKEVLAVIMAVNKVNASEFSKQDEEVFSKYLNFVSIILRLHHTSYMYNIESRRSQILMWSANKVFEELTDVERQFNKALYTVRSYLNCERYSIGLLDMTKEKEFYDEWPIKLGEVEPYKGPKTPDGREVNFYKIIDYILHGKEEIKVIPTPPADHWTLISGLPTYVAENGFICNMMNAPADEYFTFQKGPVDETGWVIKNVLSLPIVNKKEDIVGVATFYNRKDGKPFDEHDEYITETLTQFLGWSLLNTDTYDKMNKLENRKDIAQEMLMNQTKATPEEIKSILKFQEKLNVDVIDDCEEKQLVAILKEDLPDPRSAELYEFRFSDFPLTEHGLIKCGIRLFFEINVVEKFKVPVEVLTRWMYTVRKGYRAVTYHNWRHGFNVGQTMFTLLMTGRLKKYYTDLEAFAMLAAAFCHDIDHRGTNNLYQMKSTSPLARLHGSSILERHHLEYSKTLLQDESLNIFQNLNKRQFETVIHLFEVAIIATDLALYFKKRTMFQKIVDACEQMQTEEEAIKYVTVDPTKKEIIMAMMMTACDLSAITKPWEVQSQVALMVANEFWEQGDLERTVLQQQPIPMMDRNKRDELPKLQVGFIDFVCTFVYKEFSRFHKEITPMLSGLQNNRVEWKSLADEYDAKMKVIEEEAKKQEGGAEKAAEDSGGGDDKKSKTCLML

Sequence of PDE6C-L858V (P51160 whole entry L858V): as the sequence (P51160 whole entry H262N) above, with N262H, L858V counted along it
Sequence of PDE6C-Y323N (P51160 whole entry Y323N): as the sequence (P51160 whole entry H262N) above, with N262H, Y323N counted along it

B1: bovine rod Pγ (natural protein, UniProt P04972 1-87, looked up)
chain: MNLEPPKAEIRSATRVMGGPVTPRKGPPKFKQRQTRQFKSKPPKKGVQGFGDDIPGMEGLGTDITVICPWEAFNHLELHELAQYGII
Binder B1 has a Ki [1] of 176 pM, a Ki [2] of 114 pM and a Ki [3] of 222 pM.
